Residue numbers refer to the chain shown, from its start.
T1: cyno CD137 (cynomolgus monkey, UniProt Q07011 24-186 (human entry), limits assumed)
T1 construct: also called cynomolgus monkey CD137
T1 chain: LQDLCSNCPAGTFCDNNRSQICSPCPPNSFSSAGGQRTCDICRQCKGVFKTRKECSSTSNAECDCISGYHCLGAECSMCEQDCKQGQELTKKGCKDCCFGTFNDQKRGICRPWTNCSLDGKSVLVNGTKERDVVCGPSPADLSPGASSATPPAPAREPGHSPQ

T2: Human CD3eg linker (human)
T2 construct: Single chain: CD3 epsilon and gamma subunits joined by a 29-mer linker, Flag-tag at the C-terminus; also called recombinant human CD3
T2 chain: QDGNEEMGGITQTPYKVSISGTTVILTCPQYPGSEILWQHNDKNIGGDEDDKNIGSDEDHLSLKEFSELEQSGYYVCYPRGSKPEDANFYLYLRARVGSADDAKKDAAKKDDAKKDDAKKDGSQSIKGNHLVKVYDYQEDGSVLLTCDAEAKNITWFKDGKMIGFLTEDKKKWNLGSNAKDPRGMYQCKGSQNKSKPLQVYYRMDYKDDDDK

B1: dBBDu197 (antibody, V domains shown)
VH: QVQLVESGGGLVQPGRSLRLSCAASGFTFSNAWMHWVRQAPGKGLEWVAQIKDRSNAYAAYYAPSVKGRFTISRDDSKNSIYLQMNSLKTEDTAVYYCHYVHYASASTVLPAFGVDAWGQGTTVTVSS
VL: DIVMTQSPLSLPVTPGEPASISCRSSQSLVHSNRNTYLHWYQQKPGQAPRLLIYKVSNRFSGVPDRFSGSGSGTDFTLKISRVEAEDVGVYYCGQGTQVPYTFGQGTKLEIK
notes: Human IgG1; light chain GLS3000 (kappa)
B2: dBBDu139 (antibody, V domains shown)
VH: QVQLVESGGGLVQPGRSLRLSCAASGFTFSNAWMHWVRQAPGKGLEWVAQIKDRGNAYNAYYAESVKGRFTISRDDSKNSIYLQMNSLKTEDTAVYYCRFVHYRHPLLHIQYGVDAWGQGTTVTVSS
VL: B1 VL
notes: as for B1
B3: dBBDu217 (antibody, V domains shown)
VH: QVQLVESGGGLVQPGRSLRLSCAASGFTFSNAWMHWVRQAPGKGLEWVAQIKDRQQGYATYYAPSVKGRFTISRDDSKNSIYLQMNSLKTEDTAVYYCRFVHYHLAGYGYYGVDAWGQGTTVTVSS
VL: B1 VL
notes: as for B1
B4: dBBDu205 (antibody, V domains shown)
VH: B1 VH with N56Q, A57L
VL: B1 VL
notes: as for B1
B5: dBBDu183 (antibody, V domains shown)
VH: B1 VH with R54K, S55G
VL: B1 VL
notes: Human IgG1; light chain GLS3000 (kappa), before light chain maturation
B6: dBBDu204 (antibody, V domains shown)
VH: B1 VH with A57N, A60T, P64E
VL: B1 VL
notes: as for B1
B7: dBBDu167 (antibody, V domains shown)
VH: B1 VH with R54K, S55G, A57L, S107G, T108G, V109G, A112G
VL: B1 VL
notes: as for B1
B8: dBBDu173 (antibody, V domains shown)
VH: B1 VH with R54K, S55G, A57L, S107G, T108G, V109G, P111S, F113Y
VL: B1 VL
notes: as for B1
B9: dBBDu196 (antibody, V domains shown)
VH: B1 VH with S55G, A59N, P64E
VL: B1 VL
notes: as for B1
B10: dBBDu202 (antibody, V domains shown)
VH: B1 VH with R54K, S55G, A104S, S105A
VL: B1 VL
notes: as for B1
B11: dBBDu179 (antibody, V domains shown)
VH: B1 VH with A57Q, A60T
VL: B1 VL
notes: as for B1
B12: dBBDu222 (antibody, V domains shown)
VH: QVQLVESGGGLVQPGRSLRLSCAASGFTISSAWMHWVRQAPGKGLEWVAQIKDRANGYAAYYAPSVKGRFTISRDDSKNSIYLQMNSLKTEDTAVYYCRYVHYATAYDGFYGFGVDAWGQGTTVTVSS
VL: B1 VL
notes: as for B1
B13: dBBDu189 (antibody, V domains shown)
VH: B1 VH with V48I, A57Q, A60T, S105Q, T108S, V109L, A112S
VL: B1 VL
notes: as for B1
B14: dBBDu199 (antibody, V domains shown)
VH: B1 VH with R54K, S55Q, N56S, A57G, A59N, A60T
VL: B1 VL
notes: as for B1
B15: dBBDu193 (antibody, V domains shown)
VH: B1 VH with A57Q, A60T, A104S, S105A, V109L, A112S
VL: B1 VL
notes: as for B1
B16: dBBDu186 (antibody, V domains shown)
VH: B1 VH with A57Q, A60T, S105Q
VL: B1 VL
notes: as for B1
B17: dBBDu167/L091 (antibody, V domains shown)
VH: B1 VH with R54K, S55G, A57L, S107G, T108G, V109G, A112G
VL: B1 VL with R24S, S25A, Q27E, V30L, S32N, N35H, K55R, S61N, Y101F
notes: IgG format; constant regions not specified
B18: dBBDu189/L116 (antibody, V domains shown)
VH: B1 VH with V48I, A57Q, A60T, S105Q, T108S, V109L, A112S
VL: B1 VL with R24S, S28E, S32A, N35Q, T36I, S57A, S61P, G94A, Y101F
notes: as for B17
B19: dBBDu186/L096 (antibody, V domains shown)
VH: B1 VH with A57Q, A60T, S105Q
VL: B1 VL with S25T, S28E, S32I, N35Y, T36I, Y37F, S57Y, S61Q, G94A, Q98S
notes: as for B17
B20: dBBDu189/L112 (antibody, V domains shown)
VH: B1 VH with V48I, A57Q, A60T, S105Q, T108S, V109L, A112S
VL: B1 VL with R24T, S26D, S28E, S32M, N35H, S57Y, S61P, G94A, Q98S, Y101F
notes: as for B17
B21: dBBDu183/L063 (antibody, V domains shown)
VH: B1 VH with R54K, S55G
VL: B1 VL with S28E, S32T, N35H, S61P, G94A, Y101F
notes: as for B17
B22: dBBDu183/L072 (antibody, V domains shown)
VH: B1 VH with R54K, S55G
VL: B1 VL with R24Q, S25A, S28E, S32M, S61P, G94A, Q98S, Y101F
notes: IgG format; also called H183L072
B23: dBBDu183/L067 (antibody, V domains shown)
VH: B1 VH with R54K, S55G
VL: B1 VL with R24Q, Q27E, S32V, N35H, S57Y, S61P, G94A, Q98S, Y101F
notes: as for B17
B24: H1673L0943 (antibody, V domains shown)
VH: QVQLVESGGGLVQPGRSLRLSCAASGFVFSNVWFHWVRQAPGKGLEWVAQIKDKWNAYADYYAPSVKERFTISRDDSKNSIYLQMNSLKTEDTAVYYCHYIHYASASTLLPAEGIDAWGQGTTVTVSS
VL: DIVMTQSPLSLPVTPGEPASISCQPSEEVVHMNRNTYLHWYQQKPGQAPRLLIYKVSNLFPGVPDRFSGSGSGTDFTLKISRVEAEDVGVYYCAQGTHHPFTFGQGTKLEIK
notes: Dual-Ig, IgG; also called dBBDu183H1673/dBBDu072L0943
B25: H2594L0581 (antibody, V domains shown)
VH: B24 VH with V28K, K54Y, W55Y, D60G, A63H, E68G, I101V, S105A, T108Q, I115V
VL: B24 VL with E27Q, L59R, H98S
notes: Dual-Ig, IgG; also called H2594L581; dBBDu183H2594/dBBDu072L0581
B26: H2591L0581 (antibody, V domains shown)
VH: B24 VH with V28K, K54Y, W55Y, D60G, A63H, E68G, I101V, S105A, I115V
VL: B24 VL with E27Q, L59R, H98S
notes: Dual-Ig, IgG; also called H2591L581; dBBDu183H2591/dBBDu072L0581

target: T3, human CD137-Fc (human, biotin-labeled); experiment: bead ELISA on biotin-human CD137-Fc with 125 pmol/well free CD3e peptide as competitor;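 note: Streptavidin-coated magnetic beads in blocking buffer as the capture surface, well signal read as fluorescence 2 min after adding APS-5 substrate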
T3 construct: if 90 already holds the Fc, drop the second piece; also called biotin-labeled human CD137 fused to human IgG1 Fc fragment; biotin-human CD137-Fc; not shown: human IgG1 Fc fragment

ELISA signal	Binder
2110	B1
1920	B2
2420	B3
2190	B4
2370	B5
1880	B6
1940	B7
2040	B8
2220	B9
1930	B10
2620	B11
3240	B12
2190	B13
2370	B14
2280	B15
2500	B16

Target: T1, cyno CD137
Experiment: SPR Biacore T200, IgG captured on protein A, 25 C;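 note: antigens diluted in ACES running buffer at pH 7.4 were flowed over antibodies held on a CM3 chip bearing amine-coupled protein A, with buffer alone serving as blank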

Kd	koff	kon	Binder
4170 nM	0.0101 s⁻¹	2430 M⁻¹ s⁻¹	B17
11100 nM	0.00823 s⁻¹	744 M⁻¹ s⁻¹	B18
205000 nM	0.00223 s⁻¹		B19
5760 nM	0.0286 s⁻¹	4980 M⁻¹ s⁻¹	B20
3120 nM	0.00457 s⁻¹	1470 M⁻¹ s⁻¹	B21
4870 nM	0.00593 s⁻¹	1220 M⁻¹ s⁻¹	B22
6200 nM	0.00813 s⁻¹	1310 M⁻¹ s⁻¹	B23

target: human CD3 ed (human, UniProt P07766 23-126; P04234 22-105, limits assumed); experiment: SPR Biacore T200, IgG captured on protein A, 25 C;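 note: antigens diluted in ACES running buffer at pH 7.4 were flowed over antibodies held on a CM3 chip bearing amine-coupled protein A, with buffer alone serving as blank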

Kd	koff	kon	Binder
413 nM	0.0216 s⁻¹	52400 M⁻¹ s⁻¹	B17
209 nM	0.00434 s⁻¹	20800 M⁻¹ s⁻¹	B18
9110 nM	0.102 s⁻¹	11200 M⁻¹ s⁻¹	B19
331 nM	0.01 s⁻¹	30300 M⁻¹ s⁻¹	B20
276 nM	0.0157 s⁻¹	56900 M⁻¹ s⁻¹	B21
217 nM	0.00785 s⁻¹	36100 M⁻¹ s⁻¹	B22
217 nM	0.0193 s⁻¹	88900 M⁻¹ s⁻¹	B23

target: T3, human CD137-Fc; experiment: bead ELISA on biotin-human CD137-Fc, 125 vs 0 pmol free CD3e peptide;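 note: target captured on streptavidin-coated magnetic beads, signal read as fluorescence 2 min after adding APS-5 substrate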

Signal decrease	Binder
96.1%	B1
79.6%	B2
87.3%	B3
95.2%	B4
93%	B5
95.7%	B6
92.5%	B7
68.8%	B8
93.3%	B9
84%	B10
95.7%	B11
55%	B12
92%	B13
94.2%	B14
87.5%	B15
92.8%	B16

target: T4, Human CD137 ECD (human); experiment: SPR Biacore T200, 37 C, Ab captured on anti-human Fc, antigen as analyte;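 note: recombinant human CD137 flowed over antibodies held by amine-coupled anti-human Fc on a CM4 chip, run in ACES pH 7.4 buffer with 150 mM NaCl and 0.05% Tween 20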
T4 construct: also called human CD137 extracellular domain; recombinant human CD137

Kd	koff	kon	Binder
59.1 nM	0.000722 s⁻¹	12200 M⁻¹ s⁻¹	B24
78.1 nM	0.00163 s⁻¹	20900 M⁻¹ s⁻¹	B25
36.3 nM	0.000742 s⁻¹	20400 M⁻¹ s⁻¹	B26

target: T3, human CD137-Fc; experiment: bead ELISA on biotin-human CD137-Fc, 0 pmol free CD3e peptide

ELISA signal	Binder
54400	B1
9440	B2
19100	B3
45200	B4
34000	B5
43700	B6
25700	B7
6540	B8
33100	B9
12100	B10
61000	B11
7190	B12
27400	B13
40900	B14
18200	B15
34800	B16

Target: T2, Human CD3eg linker
Experiment: SPR Biacore T200, 25 C, Ab captured on anti-human Fc, antigen as analyte;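 note: Anti-Fc amine-coupled to a CM4 chip, recombinant human CD3 flowed over in 20 mM ACES buffer pH 7.4 with 150 mM NaCl and 0.05% Tween 20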

Kd	koff	kon	Binder
21 nM	0.00116 s⁻¹	55000 M⁻¹ s⁻¹	B24
593 nM	0.0584 s⁻¹	98300 M⁻¹ s⁻¹	B25
525 nM	0.0535 s⁻¹	102000 M⁻¹ s⁻¹	B26

Reference: patent US20210388087A1 (Chugai, published 2021)
